{"source": "patent US20230242654A1", "about": "“REAGENTS FOR EXPANDING CELLS EXPRESSING RECOMBINANT RECEPTORS” (Juno Therapeutics, Inc., priority 2017, published 2023)", "molecules": {"B1": {"name": "anti-ID conjugated beads: FMC63-derived scFv-specific anti-idiotype antibody (B-1 in Examples 10-14) covalently coupled to tosyl-activated magnetic beads (conjugate)", "heavy": "EVQLQQSGPELVKPGASVKMSCKASGYTFTDYYMKWVKQCHGKSLEWIGDINPNNGGTDYNQNFKGKATLTVDKSSSTAYMQLNSLTSEDSAVYYCAREGNNYGSRDAMDYWGQGTSVTVSSAKTTAPSVYPLAPVCGDTTGSSVTLGCLVKGYFPEPVTLTWNSGSLSSGVHTFPAVLQSDLYTLSSSVTVTSSTWPSQSITCNVAHPASSTKVDKKIEPRGPTIKPCPPCKCPAPNLLGGPSVFIFPPKIKDVLMISLSPIVTCVVVDVSEDDPDVQISWFVNNVEVHTAQTQTHREDYNSTLRVVSALPIQHQDWMSGKEFKCKVNNKDLPAPIERTISKPKGSVRAPQVYVLPPPEEEMTKKQVTLTCMVTDFMPEDIYVEWTNNGKTELNYKNTEPVLDSDGSYFMYSKLRVEKKNWVERNSYSCSVVHEGLHNHHTTKSFSRTPGK", "light": "QIVLTQSPALMSASPGEKVTMTCSASSGVIYMYWYQQKPRSSPKPWIYLTSNLASGVPARFSGSGSGTSYSLTISSMEAEDAATYYCQQWSSNPLTFGAGTKLELKRADAAPTVSIFPPSSEQLTSGGASVVCFLNNFYPKDINVKWKIDGSERQNGVLNSWTDQDSKDSTYSMSSTLTLTKDEYERHNSYTCEATHKTSTSPIVKSFNRNEC"}}, "key": {"anti-CD19 CAR+ T cells": {"test_system": "anti-CD19 CAR+ T cells", "experiment": "Chronic stimulation assay, 14 days with anti-ID conjugated beads, then K562-CD19 challenge", "assay_type": "cell-based, human", "details": "14 days CAR-specific stimulation versus none; E:T 1:1", "text": "Separate compositions of CD4+ and CD8+ cells were isolated from human donors, activated and transduced with a viral vector encoding an anti-CD19 CAR having an scFv derived from FMC63. CD4+ and CD8+ T cells from each donor were then separately harvested, formulated, and cryofrozen. The cryofrozen engineered CD4+ and CD8+ T cells were thawed and formulated at a 1:1 ratio of CD4+ and CD8+ T cells from the same donor to generate a T cell composition containing CAR+ T cells. Anti-ID conjugated beads against the anti-CD19 CAR were incubated with cells at a 1:1 bead:cell ratio for 14 days.\n[…] The primary response of T cells from the T cell composition that had not been incubated with the anti-ID conjugated beads also was determined by similar stimulation with antigen-expressing cells (Day 0; “primary”). […] Killing activity was assessed by measuring the loss of viable target cells over 72 hours, as determined by loss of fluorescent signal over time by kinetic fluorescence microscopy (using the INCUCYTE® Live Cell Analysis System, Essen Bioscience). Killing index was determined as the inverse of the area under the curve (AUC) for target fluorescence over time. Intracellular cytokine levels of IL-2 and TNF-alpha also was assessed by flow cytometry in co-cultured T cells after incubation in the presence of Golgi inhibitor. […]"}, "[1]": {"experiment": "Stability of antibody conjugated beads (supernatant SDS-PAGE, Coomassie blue)", "assay_type": "physicochemical", "experimental": "To assess stability of the anti-ID conjugated beads, the beads were pelleted, the supernatant was removed and loaded on a 4-12% Bis-Tris SDS-PAGE gel and the gel was stained with Coomassie blue. As a control for total protein conjugated on the beads, the pelleted beads were boiled in 4× (lithium dodecyl sulfate) LDS sample buffer at about 70° C. for 20 minutes and approximately 12.5 μL or 25 μL boiled supernatant also was run on SDS-PAGE gel and assessed by Coomassie blue. Approximately 2.5 μg or 5.0 μg anti-ID antibody that had not been conjugated to the beads (positive control) or 5 μL 0.1% HSA (negative control) also were assessed by SDS-PAGE and Coomassie blue staining.\nStability of the antibody conjugated beads was assessed by pelleting the antibody-conjugated beads, running the resultant supernatant on an 4-12% Bis-Tris gel, and staining the gel for protein with Coomassie blue. As a control for total protein conjugated on the beads, a 10 μL sample of supernatant from pelleted beads that were boiled in LDS sample buffer also was assessed. […] Bands corresponding to the antibodies were detected in the sample with the supernatant from the boiled sample.\nStability of the antibody conjugated beads was assessed by pelleting the antibody-conjugated beads, running the resultant supernatant on an 4-12% Bis-Tris gel, and staining the gel for protein with Coomassie blue. […]"}, "[2]": {"test_system": "T cells transduced with anti-CD19 CAR having an scFv derived from FMC63", "experiment": "Stimulation of T cells cultured with anti-idiotype antibody-conjugated beads up to 14 days", "assay_type": "cell-based, human", "experimental": "The FMC63-derived scFv-specific anti-ID B-1-conjugated beads were incubated with T cells. CD3-purified T cells were isolated by immunoaffinity-based enrichment from leukapheresis samples from healthy donors. Isolated cells were transduced with a viral vector encoding an anti-CD19 CAR having an scFv derived from FMC63. The viral vector construct further encoded a truncated EGFR (EGFRt), which served as a surrogate marker for CAR expression; the EGFRt-coding region was separated from the CAR sequence by a T2A skip sequence. After transductions, cells were expanded in culture and frozen by cryopreservation.\nFor T cells stimulation studies, thawed CD4+ or CD8+ CAR-expressing cells were separately seeded at approximately 50,000 total cells per well. In some cases, the culture media was additionally supplemented with cytokines as follows: for CD4+ cells, approximately 1200 IU/mL recombinant IL-7, 20 IU/mL recombinant IL-15 and 100 IU/mL recombinant IL-2; for CD8+ cells, approximately 200 IU/mL recombinant IL-2 and 20 IU/mL recombinant IL-15. Anti-ID B-1 conjugated beads were added to cells at a 1:1 or 1:5 cell:bead ratio and incubated up to 14 days with a 50% media exchange every 2-3 days. As a positive control, cells were cultured with anti-CD3/anti-CD28 magnetic beads at a 3:1 cell:bead ratio in the presence or absence of the indicated cytokines.\nAt various times of culture, CD4+ or CD8+ transduced cells (as detected by anti-EGFR for expression of the surrogate marker) were assessed for expansion, PD-1 expression and viability."}}}
{"molecule": "B1", "values": [{"measurement": "Intracellular cytokine levels of IL-2 and TNF-alpha", "setting": "anti-CD19 CAR+ T cells", "result": "also were reduced"}, {"measurement": "stability of the conjugation", "setting": "[1]", "result": "the conjugation was stable"}, {"measurement": "extent of expansion of CD4+ and CD8+ T cells", "setting": "[2]; 1:1 or 1:5 cell:bead, versus control anti-CD3/anti-CD28 magnetic beads", "result": "The extent of expansion was greater"}, {"measurement": "percent viability of CD4+ and CD8+ T cells", "setting": "[2]; cultured in the presence of cytokines", "result": "remained consistently high"}, {"measurement": "surface expression of PD-1 on the CD4+ cell subset", "setting": "[2]; days 3, 7, 10 and 14", "result": "substantially lower or undetectable"}]}
